Data taken from the supplement of paper PMC7125110.
± gives the standard error. Fewer inactive variants are shown than the library holds.

B1: glmS ribozyme (parent)
chain: AUAAAAGCGCCAGAACUACAGAAAUGUAGUUGACGAGGAGGAGGUUUAUCGAAUUUUCGGCGGAUGCCUCCAAA

Columns and labels:
Settings in all cases: with glucosamine-6-phosphate
[1] = variants of: B1; experiment: self-cleavage kobs at 40 uM GlcN6P; higher = faster cleavage; RNA array
Outline: (§1)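 Weighted Michaelis–Menten fits across concentrations supplied kcat and KM, based on kobs from one- or two-exponential decay fits to normalised per-tile medians. The data came from barcoded ribozyme variants transcribed in situ by E. coli RNA polymerase on sequenced MiSeq chips and tracked at 37 °C by a hybridised Cy3 probe. Glucosamine-6-phosphate (40 μM to 10 mM) in HEPES/KCl/Mg(OAc)2 buffer was flowed in.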

[2] = variants of: B1; experiment: self-cleavage kobs at 160 uM GlcN6P; higher = faster cleavage; RNA array
Outline: as §1

[3] = variants of: B1; experiment: self-cleavage kobs at 640 uM GlcN6P; higher = faster cleavage; RNA array
Outline: as §1

[4] = variants of: B1; experiment: self-cleavage kobs at 10000 uM GlcN6P; higher = faster cleavage; RNA array
Outline: as §1

[5] = variants of: B1; experiment: self-cleavage kobs at 2500 uM GlcN6P; higher = faster cleavage; RNA array
Outline: as §1

Variant | self-cleavage kobs at 40 uM GlcN6P [1] [s⁻¹] | self-cleavage kobs at 160 uM GlcN6P [2] [s⁻¹] | self-cleavage kobs at 640 uM GlcN6P [3] [s⁻¹] | self-cleavage kobs at 10000 uM GlcN6P [4] [s⁻¹] | self-cleavage kobs at 2500 uM GlcN6P [5] [s⁻¹]
A33U U46A | < 1e-05 | < 1e-05 | < 1e-05 | – | –
A39C A48U G59U | < 1e-05 | – | – | < 1e-05 | –
U30A G62A | < 1e-05 | – | < 1e-05 | < 1e-05 | < 1e-05
G35A U56G | < 1e-05 | – | < 1e-05 | < 1e-05 | –
A64C C67G | < 1e-05 | < 1e-05 | < 1e-05 | – | < 1e-05
G7U C58A C67G C70U | 9.59e-05 ± 3.4e-05 | – | – | – | –
U31G G43U U54A | < 1e-05 | – | – | – | –
A6U A33U A64G | < 1e-05 | – | – | – | < 1e-05
A6C C11U | < 1e-05 | < 1e-05 | < 1e-05 | – | –
A12U G32A A33U | < 1e-05 | – | < 1e-05 | – | –
C8A A42U G62U | < 1e-05 | – | – | – | < 1e-05
A39C U69G | < 1e-05 | – | < 1e-05 | < 1e-05 | –
A48U C67U C70U | < 1e-05 | – | – | – | < 1e-05
C61G C71G | 3.55e-05 ± 1.3e-05 | 0.000119 ± 3e-05 | 7.69e-05 ± 2.5e-05 | – | 4.16e-05 ± 1.6e-05
G60C G66U | < 1e-05 | – | < 1e-05 | – | < 1e-05
C8A G29C G35A C67G | < 1e-05 | – | – | – | –
A6C C11G A12G C70U | < 1e-05 | – | – | – | –
G29C G62U | < 1e-05 | < 1e-05 | – | – | –
G29C A48G | < 1e-05 | < 1e-05 | < 1e-05 | – | < 1e-05
G40C U47A C61U | < 1e-05 | – | – | – | –
A12G C50U | < 1e-05 | < 1e-05 | – | < 1e-05 | –
A42U U65A | < 1e-05 | < 1e-05 | – | 4.89e-05 ± 1.2e-05 | –
C34A G38A | < 1e-05 | < 1e-05 | – | < 1e-05 | < 1e-05
A12C G63A | < 1e-05 | < 1e-05 | < 1e-05 | < 1e-05 | < 1e-05
U30C U47C | < 1e-05 | < 1e-05 | – | – | –

Variant | self-cleavage kobs at 40 uM GlcN6P [1] [s⁻¹] | self-cleavage kobs at 160 uM GlcN6P [2] [s⁻¹] | self-cleavage kobs at 640 uM GlcN6P [3] [s⁻¹] | self-cleavage kobs at 10000 uM GlcN6P [4] [s⁻¹] | self-cleavage kobs at 2500 uM GlcN6P [5] [s⁻¹]
A39C A42G A64C C67G | < 1e-05 | – | – | < 1e-05 | –
A15U G62A | < 1e-05 | < 1e-05 | – | < 1e-05 | < 1e-05
C10U A15U G43A A52G | < 1e-05 | – | – | < 1e-05 | –
C8A U47C C58G G66U | < 1e-05 | – | – | < 1e-05 | < 1e-05
C10U G41U | < 1e-05 | < 1e-05 | < 1e-05 | < 1e-05 | < 1e-05
A12U C50G | 4.38e-05 ± 1.4e-05 | 0.000613 ± 0.00026 | – | 0.000147 ± 4.2e-05 | 6.46e-05 ± 2.2e-05
G41U C50U G59U G66U | < 1e-05 | – | – | – | –
G7C G51A | < 1e-05 | < 1e-05 | < 1e-05 | < 1e-05 | –
U46G C70U | 0.000256 ± 2.3e-05 | 0.000556 ± 8.8e-05 | 0.00125 ± 0.0002 | 0.00705 ± 0.00083 | 0.00235 ± 0.00055
G7U A42U G44C | < 1e-05 | – | – | < 1e-05 | –
G37A G40C A48U G63A | < 1e-05 | – | – | – | –
C11U U49C G51U | < 1e-05 | – | – | – | –
G7U A39G | < 1e-05 | < 1e-05 | < 1e-05 | < 1e-05 | < 1e-05
A53C U57C | < 1e-05 | – | – | 4.63e-05 ± 1.2e-05 | 4.1e-05 ± 1.6e-05
U31G U54G C67G C68A C70G | 4.46e-05 ± 2.2e-05 | – | – | – | 0.000243 ± 6.9e-05
G29A G35U C50U | < 1e-05 | – | – | < 1e-05 | –
A6G A42C C71U | < 1e-05 | – | < 1e-05 | – | –
G13U G43C | < 1e-05 | < 1e-05 | < 1e-05 | < 1e-05 | < 1e-05
A14U G29U G44U U56A | < 1e-05 | – | – | – | –
A48U U49A | < 1e-05 | < 1e-05 | < 1e-05 | – | –
G29C A36C U49C U54G | < 1e-05 | – | – | – | –
A6U U55C C71A | < 1e-05 | – | – | – | –
G37A A52U G59A G60A | < 1e-05 | – | – | – | –
C10U U49C | < 1e-05 | – | < 1e-05 | < 1e-05 | < 1e-05
